In patent US20100196385A1 (AstraZeneca / MedImmune, published 2010):

T1: human Dll1 (human, UniProt O00548 18-723)
T1 construct: whole, on cells
T1 sequence (looked up): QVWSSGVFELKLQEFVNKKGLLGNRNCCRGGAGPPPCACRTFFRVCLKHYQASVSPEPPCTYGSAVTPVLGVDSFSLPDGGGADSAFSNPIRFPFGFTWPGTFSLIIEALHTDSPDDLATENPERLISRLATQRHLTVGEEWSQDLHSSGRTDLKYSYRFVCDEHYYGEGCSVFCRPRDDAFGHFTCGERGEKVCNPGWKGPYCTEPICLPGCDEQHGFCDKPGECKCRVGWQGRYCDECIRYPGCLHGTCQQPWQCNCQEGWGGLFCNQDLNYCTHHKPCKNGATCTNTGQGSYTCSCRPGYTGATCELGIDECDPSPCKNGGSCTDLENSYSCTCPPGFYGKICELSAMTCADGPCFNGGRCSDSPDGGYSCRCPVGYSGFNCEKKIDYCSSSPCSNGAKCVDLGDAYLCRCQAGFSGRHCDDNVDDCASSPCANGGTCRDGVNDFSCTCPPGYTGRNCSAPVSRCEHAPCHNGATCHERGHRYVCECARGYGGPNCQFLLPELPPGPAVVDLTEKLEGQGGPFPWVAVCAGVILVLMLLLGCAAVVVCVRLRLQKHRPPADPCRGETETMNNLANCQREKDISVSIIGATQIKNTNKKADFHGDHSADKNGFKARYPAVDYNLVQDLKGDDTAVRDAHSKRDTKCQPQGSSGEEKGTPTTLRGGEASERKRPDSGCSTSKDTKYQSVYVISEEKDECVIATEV


Assays:
human Dll1 [1] = target: T1, human Dll1; experiment: FACS, 15 µg/ml, 293T cells with human Dll1
In short: (§1)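 Flow cytometry; 1 h antibody staining at 4 °C in PBS/2% FCS. Value = geometric mean fluorescence shift over mock-transfected cells.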

full length human DLL4 [2] = target: T2, full length human DLL4 (human, UniProt Q9NR61 27-685); experiment: FACS titration, HEK293 cells with human DLL4
T2 construct: whole, on cells; also called native DLL4 expressed in HEK293 cells
In short: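 Antibody titration on HEK293 cells expressing full-length human DLL4, detected with anti-human IgG-Fc-Cy5 plus 7AAD for 30 minutes at 4° C. by flow cytometry. KD estimated by nonlinear fit of mean fluorescence vs total mAb concentration, with receptor number, background and proportionality constant floating.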

human Jagged1 [3] = target: T3, human Jagged1 (human, UniProt P78504 34-1218); experiment: FACS, 5 µg/ml, 293T cells with human Jagged1 vs mock
T3 construct: whole, on cells
In short: as §1

human Jagged1 [4] = target: T3, human Jagged1; experiment: FMAT, hybridoma supernatant, 293T cells with human Jagged1
In short: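 Transfected 293T cells (3000 expressing plus 15000 mock-transfected per well), in PBS with 2% FBS, were mixed with hybridoma supernatant and Cy5 goat anti-human IgG Fc (750 ng/ml final). After 3 h at room temperature, binding was read by FMAT fluorescence. Notch1/Fc served as positive control for DLL4 and Notch3/Fc for Jagged1.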

human Dll1 [5] = target: T1, human Dll1; experiment: FACS, up to 300 µg/ml, HEK-293 cells stably overexpressing human Dll1
human Jagged1 [6] = target: T3, human Jagged1; experiment: FACS, up to 300 µg/ml, HEK-293 cells stably overexpressing human Jagged1
full length human DLL4 [7] = target: T2, full length human DLL4; experiment: FACS competition, unlabeled antibody vs competitor Alexa-647 4B4, HEK293 cells with human DLL4
Experimental: (§2) The ability of the purified DLL4 antibodies to inhibit the binding of other DLL4 antibodies to human DLL4 was assessed using a FACS assay. Briefly, antibodies were directly labelled with Alexa-647 using a commercially available labelling kit (e.g. Molecular Probes catalog #A30009, A-20186) as per the manufacturer's instructions. To determine the level of cross-competition, unlabelled anti-DLL4 antibodies (final concentration: 10-0.01 μg/ml) diluted in PBS containing 2% FCS were added to DLL4-expressing HEK 293 cells (as described in example 6; 50000 cells/well diluted in PBS containing 2% FCS) and incubated for 1 h at 4° C. Subsequently, Alexa-647 labeled anti-DLL4 antibodies were added at a final concentration of 0.1 μg/ml and plates were incubated for a further 1 h at 4° C. prior to washing and reading on a FACSCalibur instrument. Data that summarizes the ability of unlabeled antibodies (10, 1, 0.1 μg/ml) to compete with labeled 21H3RK for binding to human DLL4 is included in FIG. 3. Additional data that summarizes the ability of unlabeled antibodies to compete with labeled 21H3RK and 4B4 for binding to human DLL4 is included in Table 22.

full length human DLL4 [8] = target: T2, full length human DLL4; experiment: FACS competition, unlabeled antibody vs competitor Alexa-647 21H3RK, HEK293 cells with human DLL4
Experimental: as §2

T2 sequence (Q9NR61 27-685): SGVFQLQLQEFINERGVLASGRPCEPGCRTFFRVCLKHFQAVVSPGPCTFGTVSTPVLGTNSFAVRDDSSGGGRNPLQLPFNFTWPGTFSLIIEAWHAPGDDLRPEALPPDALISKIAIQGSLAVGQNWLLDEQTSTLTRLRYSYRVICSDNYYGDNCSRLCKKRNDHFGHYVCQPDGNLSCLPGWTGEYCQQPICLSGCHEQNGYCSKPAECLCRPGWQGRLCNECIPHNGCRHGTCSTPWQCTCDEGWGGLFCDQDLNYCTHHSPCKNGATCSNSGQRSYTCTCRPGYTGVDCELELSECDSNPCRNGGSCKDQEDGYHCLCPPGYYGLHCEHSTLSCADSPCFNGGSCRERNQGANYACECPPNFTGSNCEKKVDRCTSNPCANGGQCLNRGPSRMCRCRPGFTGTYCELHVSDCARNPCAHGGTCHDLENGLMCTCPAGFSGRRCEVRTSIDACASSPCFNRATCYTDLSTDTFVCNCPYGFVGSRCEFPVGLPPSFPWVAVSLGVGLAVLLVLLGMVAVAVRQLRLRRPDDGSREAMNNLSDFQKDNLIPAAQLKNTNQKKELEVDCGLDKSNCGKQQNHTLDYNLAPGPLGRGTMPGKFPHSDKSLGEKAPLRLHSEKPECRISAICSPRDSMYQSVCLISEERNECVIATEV
T3 sequence (P78504 34-1218): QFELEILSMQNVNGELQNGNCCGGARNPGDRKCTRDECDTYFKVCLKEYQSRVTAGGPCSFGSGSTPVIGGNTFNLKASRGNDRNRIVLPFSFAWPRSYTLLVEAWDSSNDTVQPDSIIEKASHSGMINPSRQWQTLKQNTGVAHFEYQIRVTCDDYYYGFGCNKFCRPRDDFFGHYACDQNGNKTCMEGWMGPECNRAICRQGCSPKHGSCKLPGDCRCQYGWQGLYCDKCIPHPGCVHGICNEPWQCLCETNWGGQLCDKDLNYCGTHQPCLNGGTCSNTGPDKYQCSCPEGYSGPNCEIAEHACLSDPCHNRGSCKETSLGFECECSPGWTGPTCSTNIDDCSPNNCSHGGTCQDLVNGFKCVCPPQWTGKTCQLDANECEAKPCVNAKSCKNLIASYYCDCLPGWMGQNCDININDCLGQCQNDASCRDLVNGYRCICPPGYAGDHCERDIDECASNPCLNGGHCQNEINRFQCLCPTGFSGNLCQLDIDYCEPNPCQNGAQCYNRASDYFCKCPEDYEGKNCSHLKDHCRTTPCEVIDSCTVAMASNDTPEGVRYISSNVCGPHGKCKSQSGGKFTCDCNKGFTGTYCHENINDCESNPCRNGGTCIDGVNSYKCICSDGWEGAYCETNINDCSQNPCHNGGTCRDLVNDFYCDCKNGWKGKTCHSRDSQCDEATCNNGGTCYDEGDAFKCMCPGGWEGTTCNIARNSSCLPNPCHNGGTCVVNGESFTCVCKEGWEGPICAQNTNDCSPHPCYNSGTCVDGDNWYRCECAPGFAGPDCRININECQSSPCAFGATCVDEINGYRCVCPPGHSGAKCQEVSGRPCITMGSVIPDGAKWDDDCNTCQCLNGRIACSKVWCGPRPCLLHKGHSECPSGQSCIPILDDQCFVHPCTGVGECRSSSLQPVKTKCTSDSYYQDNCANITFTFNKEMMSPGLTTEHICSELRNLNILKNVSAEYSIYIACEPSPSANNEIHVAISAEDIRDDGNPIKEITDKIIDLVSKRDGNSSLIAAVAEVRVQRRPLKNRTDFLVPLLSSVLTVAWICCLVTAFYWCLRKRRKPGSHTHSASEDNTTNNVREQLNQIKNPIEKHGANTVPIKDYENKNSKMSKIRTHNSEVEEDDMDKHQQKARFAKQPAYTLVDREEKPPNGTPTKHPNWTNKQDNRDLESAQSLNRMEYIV

Binder | Dll1/293T X Geo mean (human Dll1 [1]) | Kd (full length human DLL4 [2]) | Jagged1/mock ratio (human Jagged1 [3]) | Count (human Jagged1 [4]) | FL1 (human Jagged1 [4]) | FL1 x count (human Jagged1 [4]) | fold over background (human Dll1 [5]) | fold over background (human Jagged1 [6]) | IC50 (full length human DLL4 [7]) | IC50 (full length human DLL4 [8])
4B4 (antibody, IgG4, V domains shown, Fully human; used for IgG4 rows and where no isotype is printed; also called 4B4 IgG4; 4B4.1) VH: QVLLIQSGAEVKKPGASVQVSCKASGYTFTNYGVIWVRQAPGQGLEYMGWISAYNGNTNYAQKLQDRVTMTSDTSTTTAYMELRSLRSDDTAVYYCARELGSSFDYWGQGTLVTVSS VL: SYELTQPPSVSVSPGQTARITCSGDALPKKYAYWYQQKSGQAPVLVIYEDIKRPSGIPERFSGSSSGTMATLTISGAQVEDEADYYCFSTDNSGDHSVFGGGTKLTVL | 25.9 | 0.516 nM | 1.09 | 2 | 2590 | 5180 | < 2.5 fold | < 2.5 fold | 0.348 µg/mL | 0.379 µg/mL
21H3 (antibody, IgG4, V domains shown, Fully human; used for IgG4 rows and where no isotype is printed; also called 21H3 IgG4) VH: QVQLVQSGAEVKKPGASVKVSCKASGYTFTNYGITWVRQAPGQGPEWMGWISAYNGNTNYAQKLQDRVTVTTDTSTSTAYMELRSLRSDDTAVYYCARDRVPRIPVTTEAFDIWGQGTMVTVSS VL: QSVLTQPPSASGTPGQRVTISCSGSSSNIGSYFVYWYQQLPGTAPKLLIYRNNQRPSGVPDRFSGSESGTSASLAISGLRSEDEADYYCAAWDDSLSGHWVFGGGTRLTVL | 32.4 | 0.359 nM | 1.12 | 0 | 0 | 0 | – | – | 0.274 µg/mL | 0.248 µg/mL

Continued by falling Kd (full length human DLL4 [2]), values first:

Dll1/293T X Geo mean (human Dll1 [1]) | Kd (full length human DLL4 [2]) | Jagged1/mock ratio (human Jagged1 [3]) | Count (human Jagged1 [4]) | FL1 (human Jagged1 [4]) | FL1 x count (human Jagged1 [4]) | fold over background (human Dll1 [5]) | fold over background (human Jagged1 [6]) | IC50 (full length human DLL4 [7]) | IC50 (full length human DLL4 [8]) | Binder
32.3 | 0.999 nM | 1.07 | 0 | 0 | 0 | < 2.5 fold | < 2.5 fold | 0.856 µg/mL | 0.596 µg/mL | 9G8 (antibody, IgG4, V domains shown, Fully human; used for IgG4 rows and where no isotype is printed; also called 9G8 IgG4) VH: QLQLQESGPGLVKPSETLSLSCTVSGGSISSSSSYWGLIRQPPGKGLEWIGSIYYSGSTYYSPSLKSRVSISVDTSKNQFSLKLSSVTAADTAVYFCARQGYGGHPDVFDIWGQGTMVTVSS VL: SSELTQSPSVSVSPGQTARITCSGDKLGDVYVCWYQQKTGQSPVLVIYEDTKRPSGIPERFSGSNSGNTATLTISGTQVMDEADYYCQAWDSTTAVIFGGGTKLTVL
44.1 | 0.882 nM | 1.26 | 5 | 5030 | 25200 | < 2.5 fold | < 2.5 fold | 1.15 µg/mL | 0.723 µg/mL | 2H10 (antibody, IgG4, V domains shown, Fully human; used for IgG4 rows and where no isotype is printed; also called 2H10 IgG4) VH: QVQLVESGGGVVQPGRSLRLSCAASGFTFSRHGMHWVRQAPGKGLEWVAVVWFDGSNIYYADSVKGRFTISRDNSKNTLYLQMNSLRAEDTAMYYCARDSRIAAADYWGQGTLVTVSS VL: SYELTQPPSVSVSPGQTVSITCSGDKLGDKYVCWYQQKPGQSPVLVIYQESKRPSGIPERFSGSSSGNTATLTISGTQAMDEADYYCQTWDSSLVVFGGGTKLTVL
